The values that follow come from publication PMC6684798, “Structural basis for the target specificity of actin histidine methyltransferase SETD3” (Nature Communications, 2019).

The assay concerns the target T1, SETD3 WT (Homo sapiens, UniProt Q86TU7).
T1 construct: GST (cleaved yes); made in house; host or cells: Escherichia coli BL21(DE3) CodonPlus
T1 sequence (Q86TU7 1-594): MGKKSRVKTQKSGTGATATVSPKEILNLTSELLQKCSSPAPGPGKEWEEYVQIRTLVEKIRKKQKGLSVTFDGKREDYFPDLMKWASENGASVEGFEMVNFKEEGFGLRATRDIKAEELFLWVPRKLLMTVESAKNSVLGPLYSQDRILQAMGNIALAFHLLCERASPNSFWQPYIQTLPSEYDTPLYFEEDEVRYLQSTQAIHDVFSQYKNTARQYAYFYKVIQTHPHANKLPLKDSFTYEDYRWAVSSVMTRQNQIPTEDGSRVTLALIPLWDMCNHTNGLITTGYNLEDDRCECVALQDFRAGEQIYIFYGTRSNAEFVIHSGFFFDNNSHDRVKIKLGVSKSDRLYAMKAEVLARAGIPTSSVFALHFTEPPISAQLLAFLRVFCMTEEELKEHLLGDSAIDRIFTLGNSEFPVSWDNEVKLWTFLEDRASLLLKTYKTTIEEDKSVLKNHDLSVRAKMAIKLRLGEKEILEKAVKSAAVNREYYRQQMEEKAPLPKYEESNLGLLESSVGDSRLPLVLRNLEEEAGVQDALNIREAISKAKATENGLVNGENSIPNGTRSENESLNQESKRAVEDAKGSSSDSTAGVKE
The experiment in a line: MALDI-TOF analysis of K73(66–88) methylation by SETD3 WT (Fig. 3e). Format: biochemical. To be noted: pH 10.5, 37 °C, 3 μM WT, 10 µM peptide, 40 µM SAM. How it is done:
Fig. 3 Kinetics of SETD3 on H73 and K73 peptides. a Comparison of activities of three variants (WT, N255A, and N255V) on H73(66–80) peptide. The assays were performed at room temperature (~22 °C) and pH 8.0 using [WT] = 0.18 μM, [N255A] = 0.18 μM, and [N255V] = 0.72 μM. b Comparison of SETD3 WT activities on two K73 peptides (residues 66–80 and 66–88). The assays were performed at 37 °C and pH 10.5 using [WT] = 3 and 15 μM, respectively, for the long and short peptides. c Comparison of activities of three variants (N255A, N255V, and WT) on K73(66–88) peptide. The assays were performed at 37 °C and pH 10.5 using [N255A] = 90 nM, [N255V] = 0.72 μM and [WT] = 4 μM. Data represent the mean ± SD of N number of independent determinations (N = 3 for the WT and N = 2 for the mutants) performed in duplicate. Source data are provided as a Source Data file. d, e Mass spectrometry analysis of K73(66–88) methylation kinetic showing representative spectra at various time points for N255A variant (panel d) and SETD3 WT enzyme (panel e). […]
Recombinant human SETD3 (pXC2003) was expressed as a GST-fusion[22] in Escherichia coli BL21(DE3) CodonPlus^TM cells (Stratagene). […]
Actin K73 peptide (residues 66–88) was used as a substrate for SETD3 (Fig. 3d, e). […] We note that samples diluted into a 0.1% (v/v) TFA solution in water could not be detected by MALDI-TOF, thus the acetonitrile additive is necessary.

In the case of “K73(66–88): K73-containing actin H73K peptide, residues 66–88 (TLKYPIEKGIVTNWDDMEKIWHH; UniProt P60709 66-88, looked up, variant H73K)”, the K73 methylation product entry is, setting by setting: (2 h) “only monomethyl lysine”; (overnight) “substantial amounts of unmodified and monomethyl substrates remain, along with a small amount of dimethyl and tri-methyl products”.
